From article doi:10.1101/787937

How the values were obtained:
[1] = biological target: T1, YTHDC1 YTH domain (human, UniProt Q96MU7 345-509); assay: ITC
[2] = biological target: T1, YTHDC1 YTH domain; assay: X-ray crystallography

B1: GG(m6A)CU (ssRNA)
RNA: GGACU
modifications: m6A at position 3
Kd [1]: 500 nM

B2: GG(m6A)C (ssRNA)
RNA: GGAC
modifications: m6A at position 3
binding result [2]: binds

B3: G(m6A)CU (ssRNA)
RNA: GACU
modifications: m6A at position 2
binding result [2]: binds

B4: G(m6A)C (ssRNA)
RNA: GAC
modifications: m6A at position 2
binding result [2]: binds

B5: (m6A)CU (ssRNA)
RNA: ACU
modifications: m6A at position 1
binding result [2]: binds
